Consider 1 substance from US20090104178A1.

The target in one experiment is APRIL (TNFL13). In words: SPR. Background: SPR reads the build-up and loss of mass on a sensor chip optically.
Another experiment addresses LIGHT (TNFL14). In words: SPR.

A word on the Kd: it is the free concentration of one partner at which half of the binding sites on the other are occupied at equilibrium, for simple one-to-one binding. Lower therefore signals a tighter complex. In the case of “Purified recombinant EV CrmD protein (receptor)”, the results for the Kd in the experiment with APRIL (TNFL13) and with LIGHT (TNFL14) were 110 µM and 0.14 µM, respectively.
